Data reported in publication PMC3464217.

Biological target: recombinant gp160 (HIV (IIIB or MN/LAI))
Assay: SPR
Conditions: bispecific antibody

HY-[Fx2-Hx4-Fx2]-7B2 (from UniProt P01857)
Ka: 4.6e+10 M⁻¹ | Kd: 0.021 nM

HY-[Hx4]-7B2 (from UniProt P01857)
Ka: 1.7e+10 M⁻¹
